Laboratory results taken from US20160051704A1, “MOLECULAR IMAGING PROBES FOR LUNG CANCER INTRAOPERATIVE GUIDANCE” (H. Lee Moffitt Cancer Center and Research Institute, Inc., priority 2013, published 2016).

Molecular target: T1, delta opioid receptor (δOR) on HCT-116/δOR cells, P41143
T1 chain: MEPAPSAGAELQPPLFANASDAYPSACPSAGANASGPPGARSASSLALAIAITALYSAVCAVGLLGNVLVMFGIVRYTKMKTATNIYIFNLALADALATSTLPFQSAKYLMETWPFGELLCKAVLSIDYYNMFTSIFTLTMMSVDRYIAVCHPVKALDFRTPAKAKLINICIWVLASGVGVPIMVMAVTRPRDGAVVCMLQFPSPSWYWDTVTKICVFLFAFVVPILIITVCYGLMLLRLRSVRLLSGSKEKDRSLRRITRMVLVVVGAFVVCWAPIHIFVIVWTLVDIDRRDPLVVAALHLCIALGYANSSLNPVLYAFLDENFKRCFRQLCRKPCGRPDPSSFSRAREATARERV
Test: in cyto time-resolved fluorescence saturation binding on HCT-116/δOR cells

With YCGFC (modifications not checked) [Europium (Eu)-diethylenetriaminepentaacetic acid (DTPA)[D-Pen2, L-Cys5] enkephalin (DPLCE)] the Bmax was 3.01e+06 AFU.
